Results as given in PMC12102760.

Target: IgG 1C1
Experiment: BLI; IgG captured on anti-human biosensors, quenched with Fc; receptor ECD-Fc in solution, three-fold dilutions from 300 nM; PBS, 1% BSA, 0.05% Tween 20; 25°C; 1:1 binding model

Sequence of IgG 1C1 (heavy, as listed by the source, chain 1 of 2): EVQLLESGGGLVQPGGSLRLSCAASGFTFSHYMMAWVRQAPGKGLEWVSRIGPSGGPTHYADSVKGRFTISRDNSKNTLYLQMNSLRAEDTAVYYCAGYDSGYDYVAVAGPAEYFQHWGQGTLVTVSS
Sequence of IgG 1C1 (light, as listed by the source, chain 2 of 2): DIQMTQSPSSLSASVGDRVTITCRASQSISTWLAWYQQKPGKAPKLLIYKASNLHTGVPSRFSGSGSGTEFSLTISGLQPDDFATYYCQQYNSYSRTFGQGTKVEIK

Kd: 970 nM
B1: EphA8-Fc (Fc fusion)
chain: ARGEVNLLDTSTIHGDWGWLTYPAHGWDSINEVDESFQPIHTYQVCNVMSPNQNNWLRTSWVPRDGARRVYAEIKFTLRDCNSMPGVLGTCKETFNLYYLESDRDLGASTQESQFLKIDTIAADESFTGADLGVRRLKLNTEVRSVGPLSKRGFYLAFQDIGACLAILSLRIYYKKCPAMVRNLAAFSEAVTGADSSSLVEVRGQCVRHSEERDTPKMYCSAEGEWLVPIGKCVCSAGYEERRDACVACELGFYKSAPGDQLCARCPPHSHSAAPAAQACHCDLSYYRAALDPPSSACTRPPSAPVNLISSVNGTSVTLEWAPPLDPGGRSDITYNAVCRRCPWALSRCEACGSGTRFVPQQTSLVQASLLVANLLAHMNYSFWIEAVNGVSDLSPEPRRAAVVNITTNQAAPSQVVVIRQERAGQTSVSLLWQEPEQPNGIILEYEIKYYEKDKEMQSYSTLKAVTTRATVSGLKPGTRYVFQVRARTSAGCGRFSQAMEVETGKPRPRYDTRT
